Article PMC9668932

Target: heat shock protein HSP 90-beta, full length, His6-tagged (human) (UniProt P08238)
Assay: cryo-EM structure; ternary Hsp90-XAP2-AHR complex, co-expressed in Sf9 and co-purified, with indirubin at 5x molar excess; 20 mM Bis-Tris-HCl pH 7.0, 50 mM NaCl, 10 mM KCl, 10 mM MgCl2, 20 mM Na2MoO4, 2 mM BME; global map 2.85 Å, focused map 4.07 Å

Chain of heat shock protein HSP 90-beta, full length, His6-tagged, P08238 1-724 (natural protein; other documents disagree on this pair) (P08238 whole entry): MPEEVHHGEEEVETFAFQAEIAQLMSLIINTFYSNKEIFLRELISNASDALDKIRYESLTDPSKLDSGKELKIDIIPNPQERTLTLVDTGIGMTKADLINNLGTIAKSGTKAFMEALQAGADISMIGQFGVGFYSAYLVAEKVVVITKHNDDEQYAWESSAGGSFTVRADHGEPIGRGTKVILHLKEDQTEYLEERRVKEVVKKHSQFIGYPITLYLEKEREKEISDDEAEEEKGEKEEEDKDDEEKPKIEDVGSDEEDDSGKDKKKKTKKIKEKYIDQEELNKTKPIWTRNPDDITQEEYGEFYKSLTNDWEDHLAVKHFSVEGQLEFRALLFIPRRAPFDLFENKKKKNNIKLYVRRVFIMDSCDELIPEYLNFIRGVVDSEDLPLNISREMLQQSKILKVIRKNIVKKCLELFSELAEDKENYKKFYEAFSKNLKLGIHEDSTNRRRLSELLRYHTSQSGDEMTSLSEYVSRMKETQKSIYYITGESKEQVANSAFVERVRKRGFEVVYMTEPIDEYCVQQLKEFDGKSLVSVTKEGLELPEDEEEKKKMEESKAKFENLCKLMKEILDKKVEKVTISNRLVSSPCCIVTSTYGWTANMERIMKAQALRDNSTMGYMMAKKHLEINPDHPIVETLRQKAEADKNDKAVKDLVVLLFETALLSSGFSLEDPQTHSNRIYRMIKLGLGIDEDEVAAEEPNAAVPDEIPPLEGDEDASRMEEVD

- stoichiometry N: 2
Substance: heat shock protein HSP 90-beta, full length, His6-tagged, P08238 1-724 (natural protein; other documents disagree on this pair)
